1 molecule from article PMC5770238 (Science (New York, N.Y.), 2017) can be followed below.

Read-outs that look alike come from different tables or passages of the source. A value given as a limit tells only on which side of the number the result lay.

What all share (test): fluorescence polarisation
For assay [1], the target named is T1, Hsp104 (S. cerevisiae AAA+ disaggregase), wild type (S. cerevisiae, UniProt P31539 1-908).
For assay [2], the target named is T2, Hsp104 T317A (sensor 1 ATPase mutant in NBD1) (S. cerevisiae, UniProt P31539 1-908, T317A).
Assay [3] addresses T3, Hsp104 N728A (sensor 1 ATPase mutant in NBD2) (S. cerevisiae, UniProt P31539 1-908, N728A).
Assay [4] deals with T1, Hsp104 (S. cerevisiae AAA+ …). This is another data set of the same source.
Assay [5] deals with T2, Hsp104 T317A (sensor 1 ATPase mutant in …). The source holds these as a separate data set.
Assay [6] has as its target T3, Hsp104 N728A (sensor 1 ATPase mutant in …). This is another data set of the same source.

T2 sequence (P31539 whole entry T317A): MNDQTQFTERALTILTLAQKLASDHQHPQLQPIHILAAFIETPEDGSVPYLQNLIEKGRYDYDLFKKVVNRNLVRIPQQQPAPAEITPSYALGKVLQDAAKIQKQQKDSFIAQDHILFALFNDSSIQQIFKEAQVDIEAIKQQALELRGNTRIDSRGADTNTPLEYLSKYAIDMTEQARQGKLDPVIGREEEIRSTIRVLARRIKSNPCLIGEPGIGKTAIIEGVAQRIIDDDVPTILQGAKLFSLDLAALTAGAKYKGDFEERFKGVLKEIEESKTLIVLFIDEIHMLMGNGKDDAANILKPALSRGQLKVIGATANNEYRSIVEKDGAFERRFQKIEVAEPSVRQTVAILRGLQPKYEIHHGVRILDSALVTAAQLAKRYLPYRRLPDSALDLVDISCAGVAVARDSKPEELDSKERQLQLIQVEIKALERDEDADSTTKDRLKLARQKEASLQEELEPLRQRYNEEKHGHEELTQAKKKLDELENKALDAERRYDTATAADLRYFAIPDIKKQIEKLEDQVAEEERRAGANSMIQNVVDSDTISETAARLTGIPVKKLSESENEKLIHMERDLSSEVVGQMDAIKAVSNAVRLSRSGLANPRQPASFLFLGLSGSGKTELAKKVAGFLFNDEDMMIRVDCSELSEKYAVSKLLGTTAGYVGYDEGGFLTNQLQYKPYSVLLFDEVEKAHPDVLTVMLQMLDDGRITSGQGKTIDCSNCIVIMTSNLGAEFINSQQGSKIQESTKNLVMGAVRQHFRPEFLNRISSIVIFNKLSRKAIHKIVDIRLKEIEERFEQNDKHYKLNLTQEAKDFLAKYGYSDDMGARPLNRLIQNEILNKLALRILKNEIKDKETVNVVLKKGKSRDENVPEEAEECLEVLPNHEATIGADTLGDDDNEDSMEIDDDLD
T3 sequence (P31539 whole entry N728A): as the sequence (P31539 whole entry T317A) above, with A317T, N728A counted along it
T1 sequence (P31539 whole entry): as the sequence (P31539 whole entry T317A) above, with A317T counted along it

B1: FITC-labeled casein (natural protein)
chain: RPKHPIKHQGLPQEVLNENLLRFFVAPFPEVFGKEKVNELSKDIGSESTEDQAMEDIKQMEAESISSSEEIVPNSVEQKHIQKEDVPSERYLGYLEQLLRLKKYKVPQLEIVPNSAEERLHSMKEGIHAQQKEPMIGVNQELAYFYPELFRQFYQLDAYPSGAWYYVPLGTQYTDAPSFSDIPNPIGSENSEKTTMPLW
modifications: FITC label (site not stated)
Broadly, the Kd is the concentration at which binding is half-saturated. In the case of B1, the Kd in assay [1] is over 2000 nM; in assay [2] it was over 2000 nM; in assay [3], about 33 nM; in assay [4], about 20 nM; in assay [5], about 1400 nM; in assay [6], 16 to 20 nM.
